Test results from patent publication US11965039B2, “Compstatin analogues and their medical uses” (priority 2018, dated 2024).
Positions of bridges follow the written chain, without caps; N, C: chain ends. Non-standard residues stand in square brackets, D forms with d. Trp(1-Me) = Cn1cc(C[C@H](N)C(=O)O)c2ccccc21; 1Nal = N[C@@H](Cc1cccc2ccccc12)C(=O)O; 2Nal = N[C@@H](Cc1ccc2ccccc2c1)C(=O)O

B1: Compound 64 (peptide)
peptide: Ac-FCI[2Nal]QDWGEHRCTGAES-NH2
modifications: disulfide 2-12
SMILES: CC[C@H](C)[C@@H]1NC(=O)[C@@H](NC(=O)[C@H](Cc2ccccc2)NC(C)=O)CSSC[C@@H](C(=O)N[C@H](C(=O)NCC(=O)N[C@@H](C)C(=O)N[C@@H](CCC(=O)O)C(=O)N[C@@H](CO)C(N)=O)[C@@H](C)O)NC(=O)[C@H](CCCNC(=N)N)NC(=O)[C@H](Cc2c[nH]cn2)NC(=O)[C@H](CCC(=O)O)NC(=O)CNC(=O)[C@H](Cc2c[nH]c3ccccc23)NC(=O)[C@H](CC(=O)O)NC(=O)[C@H](CCC(N)=O)NC(=O)[C@H](Cc2ccc3ccccc3c2)NC1=O
B2: Compound 56 (peptide)
peptide: Ac-EGSAFCI[1Nal]QDWGEHRCTE-NH2
modifications: disulfide 6-16
SMILES: CC[C@H](C)[C@@H]1NC(=O)[C@@H](NC(=O)[C@H](Cc2ccccc2)NC(=O)[C@H](C)NC(=O)[C@H](CO)NC(=O)CNC(=O)[C@H](CCC(=O)O)NC(C)=O)CSSC[C@@H](C(=O)N[C@H](C(=O)N[C@@H](CCC(=O)O)C(N)=O)[C@@H](C)O)NC(=O)[C@H](CCCNC(=N)N)NC(=O)[C@H](Cc2c[nH]cn2)NC(=O)[C@H](CCC(=O)O)NC(=O)CNC(=O)[C@H](Cc2c[nH]c3ccccc23)NC(=O)[C@H](CC(=O)O)NC(=O)[C@H](CCC(N)=O)NC(=O)[C@H](Cc2cccc3ccccc23)NC1=O
B3: Compound 62 (peptide)
peptide: Ac-YCI[Trp(1-Me)]QDWGEHRCTGAES-NH2
modifications: disulfide 2-12
SMILES: CC[C@H](C)[C@@H]1NC(=O)[C@@H](NC(=O)[C@H](Cc2ccc(O)cc2)NC(C)=O)CSSC[C@@H](C(=O)N[C@H](C(=O)NCC(=O)N[C@@H](C)C(=O)N[C@@H](CCC(=O)O)C(=O)N[C@@H](CO)C(N)=O)[C@@H](C)O)NC(=O)[C@H](CCCNC(=N)N)NC(=O)[C@H](Cc2c[nH]cn2)NC(=O)[C@H](CCC(=O)O)NC(=O)CNC(=O)[C@H](Cc2c[nH]c3ccccc23)NC(=O)[C@H](CC(=O)O)NC(=O)[C@H](CCC(N)=O)NC(=O)[C@H](Cc2cn(C)c3ccccc23)NC1=O
B4: Compound 52 (peptide)
peptide: Ac-ICI[2Nal]QDWGEHRCTGAES-NH2
modifications: disulfide 2-12
SMILES: CC[C@H](C)[C@H](NC(C)=O)C(=O)N[C@H]1CSSC[C@@H](C(=O)N[C@H](C(=O)NCC(=O)N[C@@H](C)C(=O)N[C@@H](CCC(=O)O)C(=O)N[C@@H](CO)C(N)=O)[C@@H](C)O)NC(=O)[C@H](CCCNC(=N)N)NC(=O)[C@H](Cc2c[nH]cn2)NC(=O)[C@H](CCC(=O)O)NC(=O)CNC(=O)[C@H](Cc2c[nH]c3ccccc23)NC(=O)[C@H](CC(=O)O)NC(=O)[C@H](CCC(N)=O)NC(=O)[C@H](Cc2ccc3ccccc3c2)NC(=O)[C@H]([C@@H](C)CC)NC1=O
B5: Compound 60 (peptide)
peptide: Ac-EGSAFCI[2Nal]QDWGEHRCTE-NH2
modifications: disulfide 6-16
SMILES: CC[C@H](C)[C@@H]1NC(=O)[C@@H](NC(=O)[C@H](Cc2ccccc2)NC(=O)[C@H](C)NC(=O)[C@H](CO)NC(=O)CNC(=O)[C@H](CCC(=O)O)NC(C)=O)CSSC[C@@H](C(=O)N[C@H](C(=O)N[C@@H](CCC(=O)O)C(N)=O)[C@@H](C)O)NC(=O)[C@H](CCCNC(=N)N)NC(=O)[C@H](Cc2c[nH]cn2)NC(=O)[C@H](CCC(=O)O)NC(=O)CNC(=O)[C@H](Cc2c[nH]c3ccccc23)NC(=O)[C@H](CC(=O)O)NC(=O)[C@H](CCC(N)=O)NC(=O)[C@H](Cc2ccc3ccccc3c2)NC1=O
B6: Compound 55 (peptide)
peptide: Ac-EGSAICIWQDWGEHRCTE-NH2
modifications: disulfide 6-16
SMILES: CC[C@H](C)[C@H](NC(=O)[C@H](C)NC(=O)[C@H](CO)NC(=O)CNC(=O)[C@H](CCC(=O)O)NC(C)=O)C(=O)N[C@H]1CSSC[C@@H](C(=O)N[C@H](C(=O)N[C@@H](CCC(=O)O)C(N)=O)[C@@H](C)O)NC(=O)[C@H](CCCNC(=N)N)NC(=O)[C@H](Cc2c[nH]cn2)NC(=O)[C@H](CCC(=O)O)NC(=O)CNC(=O)[C@H](Cc2c[nH]c3ccccc23)NC(=O)[C@H](CC(=O)O)NC(=O)[C@H](CCC(N)=O)NC(=O)[C@H](Cc2c[nH]c3ccccc23)NC(=O)[C@H]([C@@H](C)CC)NC1=O
B7: Compound 57 (peptide)
peptide: Ac-EGSAFCI[Trp(1-Me)]QDWGEHRCTE-NH2
modifications: disulfide 6-16
SMILES: CC[C@H](C)[C@@H]1NC(=O)[C@@H](NC(=O)[C@H](Cc2ccccc2)NC(=O)[C@H](C)NC(=O)[C@H](CO)NC(=O)CNC(=O)[C@H](CCC(=O)O)NC(C)=O)CSSC[C@@H](C(=O)N[C@H](C(=O)N[C@@H](CCC(=O)O)C(N)=O)[C@@H](C)O)NC(=O)[C@H](CCCNC(=N)N)NC(=O)[C@H](Cc2c[nH]cn2)NC(=O)[C@H](CCC(=O)O)NC(=O)CNC(=O)[C@H](Cc2c[nH]c3ccccc23)NC(=O)[C@H](CC(=O)O)NC(=O)[C@H](CCC(N)=O)NC(=O)[C@H](Cc2cn(C)c3ccccc23)NC1=O
B8: Compound 59 (peptide)
peptide: Ac-EGSAYCI[Trp(1-Me)]QDWGEHRCTE-NH2
modifications: disulfide 6-16
SMILES: CC[C@H](C)[C@@H]1NC(=O)[C@@H](NC(=O)[C@H](Cc2ccc(O)cc2)NC(=O)[C@H](C)NC(=O)[C@H](CO)NC(=O)CNC(=O)[C@H](CCC(=O)O)NC(C)=O)CSSC[C@@H](C(=O)N[C@H](C(=O)N[C@@H](CCC(=O)O)C(N)=O)[C@@H](C)O)NC(=O)[C@H](CCCNC(=N)N)NC(=O)[C@H](Cc2c[nH]cn2)NC(=O)[C@H](CCC(=O)O)NC(=O)CNC(=O)[C@H](Cc2c[nH]c3ccccc23)NC(=O)[C@H](CC(=O)O)NC(=O)[C@H](CCC(N)=O)NC(=O)[C@H](Cc2cn(C)c3ccccc23)NC1=O
B9: Compound 65 (peptide)
peptide: Ac-YCI[2Nal]QDWGEHRCTGAES-NH2
modifications: disulfide 2-12
SMILES: CC[C@H](C)[C@@H]1NC(=O)[C@@H](NC(=O)[C@H](Cc2ccc(O)cc2)NC(C)=O)CSSC[C@@H](C(=O)N[C@H](C(=O)NCC(=O)N[C@@H](C)C(=O)N[C@@H](CCC(=O)O)C(=O)N[C@@H](CO)C(N)=O)[C@@H](C)O)NC(=O)[C@H](CCCNC(=N)N)NC(=O)[C@H](Cc2c[nH]cn2)NC(=O)[C@H](CCC(=O)O)NC(=O)CNC(=O)[C@H](Cc2c[nH]c3ccccc23)NC(=O)[C@H](CC(=O)O)NC(=O)[C@H](CCC(N)=O)NC(=O)[C@H](Cc2ccc3ccccc3c2)NC1=O
B10: Compound 58 (peptide)
peptide: Ac-EGSAFCI[Trp(1-Me)]QDWGEHRCEGE-NH2
modifications: disulfide 6-16
SMILES: CC[C@H](C)[C@@H]1NC(=O)[C@@H](NC(=O)[C@H](Cc2ccccc2)NC(=O)[C@H](C)NC(=O)[C@H](CO)NC(=O)CNC(=O)[C@H](CCC(=O)O)NC(C)=O)CSSC[C@@H](C(=O)N[C@@H](CCC(=O)O)C(=O)NCC(=O)N[C@@H](CCC(=O)O)C(N)=O)NC(=O)[C@H](CCCNC(=N)N)NC(=O)[C@H](Cc2c[nH]cn2)NC(=O)[C@H](CCC(=O)O)NC(=O)CNC(=O)[C@H](Cc2c[nH]c3ccccc23)NC(=O)[C@H](CC(=O)O)NC(=O)[C@H](CCC(N)=O)NC(=O)[C@H](Cc2cn(C)c3ccccc23)NC1=O

Molecular target: Human C3 (Complement tech cat #A113c) (human, UniProt P01024 23-1663)
Sequence (P01024 23-1663 limits assumed): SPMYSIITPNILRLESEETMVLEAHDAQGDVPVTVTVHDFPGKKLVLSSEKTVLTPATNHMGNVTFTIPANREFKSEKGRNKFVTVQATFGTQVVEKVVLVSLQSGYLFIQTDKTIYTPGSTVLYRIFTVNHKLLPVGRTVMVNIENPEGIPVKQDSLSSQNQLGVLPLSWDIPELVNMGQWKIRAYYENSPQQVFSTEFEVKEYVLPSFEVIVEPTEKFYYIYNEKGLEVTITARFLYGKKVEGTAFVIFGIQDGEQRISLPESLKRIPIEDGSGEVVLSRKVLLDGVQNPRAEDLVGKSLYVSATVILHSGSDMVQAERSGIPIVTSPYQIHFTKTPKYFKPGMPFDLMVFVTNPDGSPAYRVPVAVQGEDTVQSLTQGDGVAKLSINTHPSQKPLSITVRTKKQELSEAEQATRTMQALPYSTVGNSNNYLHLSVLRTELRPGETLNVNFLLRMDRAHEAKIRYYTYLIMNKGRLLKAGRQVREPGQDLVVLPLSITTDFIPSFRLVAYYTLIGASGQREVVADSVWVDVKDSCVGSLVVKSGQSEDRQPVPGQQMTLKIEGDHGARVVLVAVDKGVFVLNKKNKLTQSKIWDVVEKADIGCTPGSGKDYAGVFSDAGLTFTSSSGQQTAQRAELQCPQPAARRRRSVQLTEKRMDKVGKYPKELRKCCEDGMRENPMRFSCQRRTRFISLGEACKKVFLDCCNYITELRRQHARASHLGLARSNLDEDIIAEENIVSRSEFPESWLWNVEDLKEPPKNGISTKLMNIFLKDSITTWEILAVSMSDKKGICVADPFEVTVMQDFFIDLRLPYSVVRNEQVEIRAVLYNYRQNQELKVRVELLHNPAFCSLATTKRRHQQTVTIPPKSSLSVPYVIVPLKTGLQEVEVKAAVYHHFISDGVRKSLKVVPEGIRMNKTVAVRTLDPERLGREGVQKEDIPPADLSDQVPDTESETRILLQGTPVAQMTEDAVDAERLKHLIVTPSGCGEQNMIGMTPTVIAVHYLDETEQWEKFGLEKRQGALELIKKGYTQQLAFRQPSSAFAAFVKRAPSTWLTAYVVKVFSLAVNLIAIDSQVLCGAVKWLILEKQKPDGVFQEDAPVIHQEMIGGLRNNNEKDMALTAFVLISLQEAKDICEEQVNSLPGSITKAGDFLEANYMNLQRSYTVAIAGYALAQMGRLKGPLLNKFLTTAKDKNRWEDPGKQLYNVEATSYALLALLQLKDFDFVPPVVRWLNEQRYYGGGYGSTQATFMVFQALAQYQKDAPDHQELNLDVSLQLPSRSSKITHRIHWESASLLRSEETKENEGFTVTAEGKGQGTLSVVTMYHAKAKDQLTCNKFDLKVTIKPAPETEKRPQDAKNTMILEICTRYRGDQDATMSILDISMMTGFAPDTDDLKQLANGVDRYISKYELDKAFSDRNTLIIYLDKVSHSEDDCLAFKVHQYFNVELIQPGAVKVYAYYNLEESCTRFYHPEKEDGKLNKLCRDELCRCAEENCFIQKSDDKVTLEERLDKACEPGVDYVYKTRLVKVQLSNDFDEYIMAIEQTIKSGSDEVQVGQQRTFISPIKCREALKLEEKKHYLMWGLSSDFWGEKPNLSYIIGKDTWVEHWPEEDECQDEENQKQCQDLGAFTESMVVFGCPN
Experiment: cell-based or functional assay

Binder | inhibition of hemolysis IC50 [nM]
B1 | < 100
B2 | < 100
B3 | < 100
B4 | < 100
B5 | < 100
B6 | < 250
B7 | < 100
B8 | < 100
B9 | < 100
B10 | < 100
